Reference: patent US20100015137A1 (IMMUNEX, published 2010)

Target: T1, full length human TRAIL receptor (TRAIL-R) (human, UniProt O14763 56-440)
T1 construct: The signal peptide is only predicted (residues 1-51)
Assay: flow cytometry on transfected CV-1/EBNA cells, LZ-TRAIL at 5 µg/ml
Description: CV-1/EBNA cells were co-transfected with pDC409-TRAIL-R together with pDC409-CrmA, or with pDC409-CrmA alone. The cells were cultured in DMEM supplemented with 10% fetal bovine serum, penicillin, streptomycin, and glutamine. […] The cytometric analysis was conducted on a FACscan (Beckton Dickinson, San Jose, Calif.).

B1: LZ-TRAIL (leucine zipper peptide fused to the N-terminus of a soluble human TRAIL polypeptide) (ligand, UniProt P50591 95-281, looked up)
chain: TSEETISTVQEKQQNISPLVRERGPQRVAAHITGTRGRSNTLSSPNSKNEKALGRKINSWESSRSGHSFLSNLHLRNGELVIHEKGFYYIYSQTYFRFQEEIKENTKNDKQMVQYIYKYTSYPDPILLMKSARNSCWSKDAEYGLYSIYQGGIFELKENDRIFVSVTNEHLIDMDHEASFFGAFLVG
notes: range 95-281; also called LZ-huTRAIL; not shown: modified leucine zipper that allows for trimerization
B1: binds.
